The chains are these.
B1: AM16 (antibody, V domains shown)
VH: EVQLVETGGGLAQPGGSLRLSCAASGFTFSSYNMNWVRQAPGKGLEWVSHISAGSSYIYYSDSVKGRFTVSRDNVRNSVYLQMNSLRAADTAVYYCAREDYGPGNYYSPNWFDPWGQGTLVTVSS
VL: QSVVTQPPSVSGAPGQRVTISCTGSSSNIGAGYDVHWYQQLPGTAPKLLIYGNTNRPSGVSDRFSGSKSGTSASLAITGLQAEDEADYYCHSYDRSLSGSVFGGGTKLTV
B2: D25 (B63D10-D25), monoclonal antibody from the B cell line (culture supernatant or purified from it) (antibody, V domains shown)
VH: QVQLVQSGAEVKKPGSSVMVSCQASGGPLRNYIINWLRQAPGQGPEWMGGIIPVLGTVHYAPKFQGRVTITADESTDTAYIHLISLRSEDTAMYYCATETALVVSTTYLPHYFDNWGQGTLVTVSS
VL: DIQMTQSPSSLSAAVGDRVTITCQASQDIVNYLNWYQQKPGKAPKLLIYVASNLETGVPSRFSGSGSGTDFSLTISSLQPEDVATYYCQQYDNLPLTFGGGTKVEIKRTV
B3: recombinant purified D25 (rD25), expressed in 293T cells (antibody, V domains shown)
VH: B2 VH
VL: B2 VL
B4: AM14 (antibody, V domains shown)
VH: EVQLVESGGGVVQPGRSLRLSCAASGFSFSHYAMHWVRQAPGKGLEWVAVISYDGENTYYADSVKGRFSISRDNSKNTVSLQMNSLRPEDTALYYCARDRIVDDYYYYGMDVWGQGATVTVSS
VL: DIQMTQSPSSLSASVGDRVTITCQASQDIKKYLNWYHQKPGKVPELLMHDASNLETGVPSRFSGRGSGTDFTLTISSLQPEDIGTYYCQQYDNLPPLTFGGGTKVEIKRTV
B5: AM23 (antibody, V domains shown)
VH: EVQLVESGGNVVKPGTSLRLSCAATGFNFHNYGMNWVRQAPGKGLEWVAVVWYDGSKKYYADSVTGRFAISRDNSKNTLYLQMNSLRVEDTAVYYCVRDKVGPTPYFDSWGQGTLVTVSS
VL: SYVLTQPPSVSLAPGGTAAITCGRNNIGSETVHWYQQKPGQAPVLVVYDDDDRPSGIPERFSGSNSGNTATLTISRVEAGDEADYYCQVWDRSNYHQVFGGGTKLTV
B6: recombinant GENEART codon optimized D25 (rD25 GA) (antibody, V domains shown)
VH: B2 VH
VL: DIQMTQSPSSLSAAVGDRVTITCQASQDIVNYLNWYQQKPGKAPKLLIYVASNLETGVPSRFSGSGSGTDFSLTISSLQPEDVATYYCQQYDNLPLTFGGGTKVEIKR

The first experiment addresses RSV F protein of RS virus subtype A strains (A2, X and 2006-1). In words: cell-based or functional assay.
The molecule B1 returned an IC50 values (ng/ml), RS virus neutralization, HEp2 cells, subtype A of 286 ng/mL and an IC50 values (ng/ml), RS virus neutralization, Vero cells, subtype A of 304 ng/mL.

In the case of B2, the IC50 values (ng/ml), RS virus neutralization, HEp2 cells, subtype A came out at 3.3 ng/mL and the IC50 values (ng/ml), RS virus neutralization, Vero cells, subtype A is 3.4 ng/mL.

Molecule B3 returned an IC50 values (ng/ml), RS virus neutralization, HEp2 cells, subtype A of 2.1 ng/mL and an IC50 values (ng/ml), RS virus neutralization, Vero cells, subtype A of 1.6 ng/mL.

B4 yielded an IC50 values (ng/ml), RS virus neutralization, HEp2 cells, subtype A of 21.5 ng/mL and an IC50 values (ng/ml), RS virus neutralization, Vero cells, subtype A of 15.2 ng/mL.

The molecule B5 displayed an IC50 values (ng/ml), RS virus neutralization, HEp2 cells, subtype A of 25 ng/mL and an IC50 values (ng/ml), RS virus neutralization, Vero cells, subtype A of 19.4 ng/mL.

In the next experiment the target is RSV F protein of RS virus subtype B strains (2007-2 and Z). The experiment in a line: cell-based or functional assay.
B1: the IC50 values (ng/ml), RS virus neutralization, HEp2 cells, subtype B was determined as 125 ng/mL and the IC50 values (ng/ml), RS virus neutralization, Vero cells, subtype B was 126 ng/mL.

As to B2, the IC50 values (ng/ml), RS virus neutralization, HEp2 cells, subtype B was 14.3 ng/mL and the IC50 values (ng/ml), RS virus neutralization, Vero cells, subtype B turned out to be 9 ng/mL.

The molecule B3 came in with an IC50 values (ng/ml), RS virus neutralization, HEp2 cells, subtype B of 1.9 ng/mL and an IC50 values (ng/ml), RS virus neutralization, Vero cells, subtype B of 0.3 ng/mL.

In turn, B4 returned an IC50 values (ng/ml), RS virus neutralization, HEp2 cells, subtype B of 6.7 ng/mL and an IC50 values (ng/ml), RS virus neutralization, Vero cells, subtype B of 1.1 ng/mL.

Regarding B5, the IC50 values (ng/ml), RS virus neutralization, HEp2 cells, subtype B amounted to 191 ng/mL and the IC50 values (ng/ml), RS virus neutralization, Vero cells, subtype B stood at 169 ng/mL.

For the next experiment, the target named is RSV F protein of RS virus subtype A strains (A2, X and 2006-1). In words: cell-based or functional assay. This is another data set of the same source.
The molecule B6 had an IC50 values (ng/ml), RS virus neutralization, HEp2 cells, subtype A of 5.3 ng/mL and an IC50 values (ng/ml), RS virus neutralization, Vero cells, subtype A of 3.2 ng/mL.

The next experiment addresses RSV F protein of RS virus subtype B strains (2007-2 and Z). The experiment in a line: cell-based or functional assay. This is another data set of the same source.
The molecule B6 yielded an IC50 values (ng/ml), RS virus neutralization, HEp2 cells, subtype B of 1.3 ng/mL and an IC50 values (ng/ml), RS virus neutralization, Vero cells, subtype B of 1.2 ng/mL.

(Values after patent US20160244509A1.)
